These results are taken from patent US9518103B2, “Optogenetic probes for measuring membrane potential” (President and Fellows of Harvard College, priority 2014, dated 2016).

Where two headings read alike, the source gives them in different places.

The conditions of data set [1]: earlier work, cited from earlier work.
The nature of data set [2]: Quantum yield of solubilized protein (Cy5 reference). To be noted: excitation at 600 nm. The format is physicochemical. Here is the method: Solubilization and spectroscopic characterization of QuasAr1 and QuasAr: E. coli expressing QuasAr1 and QuasAr2 were grown in 12 mL LB medium with 200 μg/ml ampicillin overnight. The next day, 12 mL of liquid LB medium containing 50 μM retinal, 200 μg/ml ampicillin and 0.1% arabinose was added into the overnight culture, followed by additional incubation at 37° C. for 4 hours. The cell pellets were collected by centrifugation and lysed by suspension in B-PER solution (Pierce). The cytoplasmic fraction was discarded after centrifugation and the colored insoluble fraction was resuspended in phosphate buffered saline (PBS) containing 1.5% n-dodecyl-β-D-maltopyranoside (Affymetrix, Inc.). The suspension was homogenized by an ultrasonic homogenizer and centrifuged (17,000 g for 15 mins, 4° C.). The solubilized protein in the supernatant was used for in vitro spectroscopic characterization.
Absorption spectra were recorded on a DU-800 UV-visible spectrophotometer (Beckman) and fluorescence spectra were recorded on a Safire2 plate reader (Tecan). Cy5 carboxylic acid (Cyandye) was used as the reference for quantum yield measurement. Quantum yield measurements were performed on a series of dilutions of each protein solution and standard, with absorbance values ranging from 0.01 to 0.05 at 600 nm. The fluorescence emission spectra of each dilution were recorded with excitation at 600 nm and the total fluorescence intensities obtained by integration. Integrated fluorescence intensity vs. absorbance was plotted for each protein and each standard. Quantum yields, Φ, were determined from the slopes (S) of each line using the equation: Φprotein=Φstandard×(Sprotein/Sstandard).

The next data set deals with HEK293T cells. Put plainly: Simultaneous whole-cell patch clamp electrophysiology and fluorescence in HEK cells (brightness, voltage sensitivity, speed). To be noted: for voltage sensitivity (ΔF/F per 100 mV): HEK cells. The format is cell-based. Here is the method:
Simultaneous electrophysiology and fluorescence in HEK cells: HEK293T cells (ATCC CRL-11268) were cultured and transfected following standard protocols.^10 Briefly, HEK-293 cells were grown at 37° C., 5% CO2, in DMEM supplemented with 10% FBS and penicillin-streptomycin. Plasmids were transfected using Transit 293T (Mirus) following the manufacturer's instructions, and assayed 48 hours later. The day before recording, cells were re-plated onto glass-bottom dishes (MatTek) at a density of ˜10,000 cells/cm^2.
Cells were supplemented with retinal by diluting stock retinal solutions (40 mM, DMSO) in growth medium to a final concentration of 5 μM, and then returning the cells to the incubator for 0.5-1 hour. All imaging and electrophysiology were performed in Tyrode buffer (containing, in mM: 125 NaCl, 2.5 KCl, 3 CaCl2, 1 MgCl2, 10 HEPES, 30 glucose pH 7.3, and adjusted to 305-310 mOsm with sucrose). A gap junction blocker, 2-aminoethoxydiphenyl borate (50 μM, Sigma), was added to eliminate electrical coupling between cells.
Filamented glass micropipettes (WPI) were pulled to a tip resistance of 5-10 MΩ, and filled with internal solution containing 125 mM potassium gluconate, 8 mM NaCl, 0.6 mM MgCl2, 0.1 mM CaCl2, 1 mM EGTA, 10 mM HEPES, 4 mM Mg-ATP, 0.4 mM Na-GTP (pH 7.3); adjusted to 295 mOsm with sucrose. Pipettes were positioned with a Sutter MP285 manipulator. Whole-cell, voltage and current clamp recordings were acquired using an […] 700B amplifier (Molecular Devices), filtered at 2 kHz with the internal Bessel filter and digitized with a National Instruments PCIE-6323 acquisition board at 5-10 kHz. Data was only acquired from HEK cells having reversal potentials between −10 and −40 mV, access resistance<25 MΩ and membrane resistance>0.5 GΩ.
Simultaneous whole-cell patch clamp recordings and fluorescence recordings were acquired on a home-built, inverted epifluorescence microscope, described previously^10 and described below in “Apparatus”. For step response measurements, voltage clamp electronics were compensated 90-95%. We examined variants of QuasAr1 with mutations at position 95 (Asn, Cys, Gin, His and Tyr) and position 106 (Arg, Asp, Asn, Cys, Glu, His, Lys and Tyr). These experiments confirmed that histidine at position 106 provided undetectable photocurrent, and the best combination of improved voltage sensitivity, and fast kinetics.
We compared the fluorescence, voltage sensitivity, and speed of the QuasArs to wild-type Arch in HEK cells, using epifluorescence microscopy and whole-cell patch clamp electrophysiology. Under low intensity illumination (640 nm, 500 mW/cm^2), QuasAr1 was 15-fold brighter than wild-type Arch, and QuasAr2 was 3.3-fold brighter (FIG. 1B; Methods).
(The patch-clamp technique gives a direct electrical read-out from membranes.)

The subject of data set [3] is cultured rat hippocampal neurons. Put plainly: Photocurrent in cultured rat hippocampal neurons. The class given is cell-based. Here is the method:
FIGS. 4A-4B show the photophysics of QuasArs in mammalian cells. […] Steady state photocurrents were calculated by averaging the current over the last 0.25 seconds of light exposure and subtracting the holding current (cells held at −65 mV) in the dark. These currents hyperpolarized cells by 25±4 mV and 19±3 mV, respectively. […] The double mutants had mutations at the locations of the proton acceptor (Asp95) and proton donor (Asp106) to the Schiff base. QuasAr1 includes mutations D95H, D106H, and QuasAr2 includes mutations D95Q, D106H. The three additional backbone mutations in the QuasArs (P60S, T80S, F161V) increased brightness relative to the double mutants, Fluorescence of each Arch mutant was measured with excitation at 640 nm and emission from 660-760 nm. To control for variation in expression level, fluorescence was normalized by eGFP fluorescence (λexc=488 nm, λem=510−550 nm). Error bars represent s.e.m. for measurements on n=5-10 cells.
Measurements were performed on primary cultures at 13-15 DIV. Experiments were conducted in Tyrode's solution containing 125 mM NaCl, 2.5 mM KCl, 3 mM CaCl2, 1 mM MgCl2, 10 mM HEPES, 30 mM glucose (pH 7.3) and adjusted to 305-310 mOsm with sucrose. Prior to imaging, neurons were incubated with 5 μM all-trans retinal for 30 minutes and then washed with Tyrode's solution.
Synaptic blockers were added to the imaging medium for measurements of single-cell electrophysiology (Arch photocurrents, and single-cell excitability). The blockers comprised NBQX (10 μM, Tocris), D(−)-2-amino-5-phosphonovaleric acid (APS; […]), and gabazine (SR-95531, 20 μM, Tocris). For measurements of channel rhodopsin photocurrents in neurons, TTX (1 μM, Tocris) was included along with the synaptic blockers to prevent recruitment of voltage gated sodium channels. […] Recordings were terminated if membrane resistance changed by >10%. Experiments were performed at 23° C. under ambient atmosphere unless otherwise noted.

[4] abbreviates: blue illumination (488 nm, 500 mW/cm^2).
[5] abbreviates: red illumination (640 nm, 300 W/cm^2).

B1: Arch D95N: Archaerhodopsin 3 D95N mutant, non-pumping voltage indicator of US 2013/0224756 (protein)
chain: MDPIALQAGYDLLGDGRPETLWLGIGTLLMLIGTFYFLVRGWGVTDKDAREYYAVTILVPGIASAAYLSMFFGIGLTEVTVGGEMLDIYYARYANWLFTTPLLLLDLALLAKVDRVTIGTLVGVDALMIVTGLIGALSHTAIARYSWWLFSTICMIVVLYFLATSLRSAAKERGPEVASTFNTLTALVLVLWTAYPILWIIGTEGAGVVGLGIETLLFMVLDVTAKVGFGFILLRSRAILGDTEAPEPSAGADVSAAD
For B1, the “step response / response time” value in data set [1] is given as 41 ms. Moreover, the “step response / response time” value in data set [1] (listed as Arch 3 D95N) is recorded as 40 ms. Besides, in data set [2], the Quantum yield was 4 × 10^−4 and the “Quantum yield relative to Arch D95N” value was determined as 1. The “voltage sensitivity (ΔF/F per 100 mV)” value in the data set with HEK293T cells was 60%.

B2: Arch D95H/D106H/P60S: Arch triple mutant D95H, D106H, P60S (protein)
chain: MDPIALQAGYDLLGDGRPETLWLGIGTLLMLIGTFYFLVRGWGVTDKDAREYYAVTILVSGIASAAYLSMFFGIGLTEVTVGGEMLDIYYARYAHWLFTTPLLLLHLALLAKVDRVTIGTLVGVDALMIVTGLIGALSHTAIARYSWWLFSTICMIVVLYFLATSLRSAAKERGPEVASTFNTLTALVLVLWTAYPILWIIGTEGAGVVGLGIETLLFMVLDVTAKVGFGFILLRSRAILGDTEAPEPSAGADVSAAD
Take B2: in data set [2], the Quantum yield is given as 5 × 10^−3 and the “Quantum yield relative to Arch D95N” value is reported as 12.

B3: Arch(WT): wild-type Archaerhodopsin 3, light-driven proton pump from Halobacterium sodomense (protein)
chain: MDPIALQAGYDLLGDGRPETLWLGIGTLLMLIGTFYFLVRGWGVTDKDAREYYAVTILVPGIASAAYLSMFFGIGLTEVTVGGEMLDIYYARYADWLFTTPLLLLDLALLAKVDRVTIGTLVGVDALMIVTGLIGALSHTAIARYSWWLFSTICMIVVLYFLATSLRSAAKERGPEVASTFNTLTALVLVLWTAYPILWIIGTEGAGVVGLGIETLLFMVLDVTAKVGFGFILLRSRAILGDTEAPEPSAGADVSAAD
modifications: Halobacterium sodomense
notes: wild-type Archaerhodopsin 3, light-driven proton pump from Halobacterium sodomense
Turning to B3, in data set [1], the “step response / response time” value is recorded as 0.6 ms. The Quantum yield entry in data set [2] was “*Due to the low light intensities used to determine QYs, fluorescence from Arch was not detected above baseline”. Besides, in data set [3] (setting [4]), the “hyperpolarization of cells by photocurrent” value is 19±3 mV and the photocurrent was determined as 140±25 pA. Moreover, in data set [3] (setting [5]), the “hyperpolarization of cells by photocurrent” value was determined as 25±4 mV and the photocurrent is 220±30 pA. In the data set with HEK293T cells, the “voltage sensitivity compared with QuasAr2” value is “three-fold less than the sensitivity of QuasAr2” and the “voltage sensitivity (ΔF/F per 100 mV)” value is on record as 40%. In the data set with HEK293T cells (23° C.), the “τdown (+30 mV to −70 mV) % τ1” value was found to be 67%, the “τdown (+30 mV to −70 mV) τ1” value was 0.25 ms, the “τdown (+30 mV to −70 mV) τ2” value is 1.9 ms and the “τup (−70 mV to +30 mV) τ1” value was 0.6 ms. In addition, in the data set on HEK293T cells (23° C., HEK293 cells), the “Brightness (λexc = 640 nm) 0.7 W/cm^2” value was 1, the “Brightness (λexc = 640 nm) 800 W/cm^2” value is 4.0 and the “Sensitivity (ΔF/F per 100 mV)” value is reported as 40%.

B4: Arch D95H/D106H: Arch double mutant D95H, D106H (protein)
chain: MDPIALQAGYDLLGDGRPETLWLGIGTLLMLIGTFYFLVRGWGVTDKDAREYYAVTILVPGIASAAYLSMFFGIGLTEVTVGGEMLDIYYARYAHWLFTTPLLLLHLALLAKVDRVTIGTLVGVDALMIVTGLIGALSHTAIARYSWWLFSTICMIVVLYFLATSLRSAAKERGPEVASTFNTLTALVLVLWTAYPILWIIGTEGAGVVGLGIETLLFMVLDVTAKVGFGFILLRSRAILGDTEAPEPSAGADVSAAD
With B4, in data set [2], the Quantum yield was 2 × 10^−3 and the “Quantum yield relative to Arch D95N” value is reported as 4.2. In addition, in the data set with HEK293T cells, the “voltage sensitivity compared with QuasAr2” value is “three-fold less than the sensitivity of QuasAr2”.

B5: Arch D95H/D106H/F161V: Arch triple mutant D95H, D106H, F161V (protein)
chain: MDPIALQAGYDLLGDGRPETLWLGIGTLLMLIGTFYFLVRGWGVTDKDAREYYAVTILVPGIASAAYLSMFFGIGLTEVTVGGEMLDIYYARYAHWLFTTPLLLLHLALLAKVDRVTIGTLVGVDALMIVTGLIGALSHTAIARYSWWLFSTICMIVVLYVLATSLRSAAKERGPEVASTFNTLTALVLVLWTAYPILWIIGTEGAGVVGLGIETLLFMVLDVTAKVGFGFILLRSRAILGDTEAPEPSAGADVSAAD
For B5, in data set [2], the Quantum yield is listed as 5 × 10^−3 and the “Quantum yield relative to Arch D95N” value turned out to be 13.
